Data from the PETadex activity labels (doi:10.1073/pnas.2006753117).
Changes are numbered by the printed parent chain.

B1: unnamed (protein)
chain: MQTTVTTMLLASVALAACAGGGSTPLPLPQQQPPQQEPPPPPVPLASRAACEALKDGNGDMVWPNAATVVEVAAYVPAGVNISMADNPSICGGDEDPITSTFAFCEVSGAIAKRTGIDGYPYEIKFRLRMPAEWNGRFFMEGGSGTNGCLSAATGSIGGGQIASALSRNFATIATDGGHDNAVNDNPDALGTVAFGLDPQARLDMGYNSYDQVTQAGKAAVARFYGRAADKSYFIGCSEGGREGMMLSQRFPSHYDGIVAGAPGYQLPKAGISGAWTTQSLAPAAVGLDAQGVPLINKSFSDADLHLLSQAILGTCDALDGLADGIVDNYRACQAAFDPATAANPANGQALQCVGAKTADCLSPVQVTAIKRAMAGPVNSAGTPLYNRWAWDAGMSGLSGTTYNQGWRSWWLGSFNSSANNAQRVSGFSARSWLVDFATPPEPMPMTQVAARMMKFDFDIDPLKIWATSGQFTQSSMDWHGATSTDLAAFRDRGGKMILYHCMSDAAFSALDTADYYERLGAAMPGAAGFARLFLVPGMNHCCGGPGTDRFDMLTPLVAWVERGEAPDQISAWSGTPGYFGVAARTRPLCPYPQIARYKGSGDINTEANFACAAPP
B2: unnamed (protein)
chain: MQTTVTTMLLASVALAACAGGGSTPLPLPQQQPPQQEPPPPPVPLASRAACEALKDGNGDMVWPNAATVVEVAAWRDAAPATASAAALPEHCEVSGAIAKRTGIDGYPYEIKFRLRMPAEWNGRFFMEGGGGTNGSLSAATGSIGGGQIASALSRNFATIATDGGHDNAVNDNPDALGTVAFGLDPQARLDMGYNSYDQVTQAGKAAVARFYGRAADKSYFIGCSEGGREGMMLSQRFPSHYDGIVAGAPGYQLPKAGISGAWTTQSLAPAAVGLDAQGVPLINKSFSDADLHLLSQAILGTCDALDGLADGIVDNYRACQAAFDPATAANPANGQALQCVGAKTADCLSPVQVTAIKRAMAGPVNSAGTPLYNRWAWDAGMSGLSGTTYNQGWRSWWLGSFNSSANNAQRVSGFSARSWLVDFATPPEPMPMTQVAARMMKFDFDIDPLKIWATSGQFTQSSMDWHGATSTDLAAFRDRGGKMILYHGMSDAAFSALDTADYYERLGAAMPGAAGFARLFLVPGMNHCSGGPGTDRFDMLTPLVAWVERGEAPDQISAWSGTPGYFGVAARTRPLCPYPQIARYKGSGDINTEANFACAAPP
B3: unnamed (protein)
chain: B2 chain with G131S, E226T
B4: unnamed (protein)
chain: B2 chain with G131S, F495I
B5: unnamed (protein)
chain: B2 chain with G131S, S225A
B6: unnamed (protein)
chain: MFVRNADRAKNCMRAPLRVFPLKDTFSAQCANVSVWITSSVPPLRERHMDRRVTRRDLMQTRILLMLIAATGVAACGGDGGSTPAAQNPPLPLASRAACEAFQGNSNSIAWPHRATVVEVATWHEAEPANATAAATPEHCEISGAIARRTGIDGYPYEIKFRLRMPSEWNGRFFMEGGGGTNGSLSAATGSLGGGQTASALSRNFATIATDGGHDNAVNNNPDALGTVAFGMDPQARIDMGYNSYDQVTQAGKAAVAQFYGRAPDKSYFIGCSEGGREGMMLSQRFPSHYDGIVAGAPGYQLPKAGISGAWTTQSLAPAAVGVDAQNVPLINKAFSDVDLHLLSRGILGTCDALDGLSDGIVNDFRACQAAFDPATALNPDTSQPLQCTGAKTPDCLSAAQVTGIKRAMGGPVDSAGAALYNRWAWDPGMSGLNGTSYNQGWRSWWLGSYASSTNNAQRVNGFSARSWLVDFATPPEPMPVTQVAARMMNFNFDTDPPKIRATSGPFTPSSMEWHGATSTNLAAFRDRGGKLMLYHGMSDAAFSALDTADYYERLGAAMPGAAGFARLFLVPGMNHCSGGPGTDRFDMLTPLVAWVERDKAPDQVSAWAGTPGYFGATARTRPLCPYPQIARYKGSGDINAEASFVCVAP
B7: unnamed (protein)
chain: MNFPRASRLMQAAVLGGLMAVSAAATAQTNPYARGPNPTAASLEASAGPFTVRSFTVSRPSGYGAGTVYYPTNAGGTVGAIAIVPGYTARQSSIKWWGPRLASHGFVVITIDTNSTLDQPSSRSSQQMAALRQVASLNGTSSSPIYGKVDTARMGVMGWSMGGGGSLISAANNPSLKAAAPQAPGYQLPKAGISGAWTTQSLAPAAVGLDAQGVPLINKSFSDADLHLLSQAILGTCDALDGLADGIVDNYRACQAAFDPATAANPANGQALQCVGAKTADCLSPVQVTAIKRAMAGPVNSAGTPLYNRWAWDAGMSGLSGTTYNQGWRSWWLGSFNSSANNAQRVSGFSARSWLVDFATPPEPMPMTQVAARMMKFDFDIDPLKIWATSGQFTQSSMDWHGATSTSSVTVPTLIFACENDSIAPVNSSALPIYDSMSRNAKQFLEINGGSHSCANSGNSNQALIGKKGVAWMKRFMDNDTRYSTFACENPNSTRVSDFRTANCS
B8: unnamed (protein)
chain: MQTTVTTMLLASVALAACAGGGSTPLPLPQQQPPQQEPPPPPVPLASRAACEALKDGNGDMVWPNAATVVEVAAWRDAAPATASAAALPEHCEVSGAIAKRTGIDGYPYEIKFRLRMPAEWNGRFFMEGGSGTNGSLSAATGSIGGGQIASALSRNFATIATDGGHDNAVNDNPDALGTVAFGLDPQARLDMGYNSYDQVTQAGKAAVARFYGRAADKSYFIGWSEGGREGMMLSQRFPSHYDGIVAGAPWDSSTNFDLAAFRDRGGKMILYHGMSDAAFSALDTADYYERLGAAMPGAAGFARLFLVPGMNHSSGGPGTDRFDMLTPLVAWVERGEAPDQISAWSGTPGYFGVAARTRPLCPYPQIARYKGSGDINTEANFACAAPP
B9: unnamed (protein)
chain: B8 chain with W224C, S314C
B10: unnamed (protein)
chain: B8 chain with W224H, S314F

Substrate: MHET
Assay: Proxy for plastic degradation [kcat] (s⁻¹)
Details: pH 7.5

Going from B1 to B2, the “Proxy for plastic degradation” value rises from 0.16 to 11.

Going from B3 to B4, the “Proxy for plastic degradation” value falls from 14 to 1.3.

Compared with B5, B6 is higher in “Proxy for plastic degradation” value: 0 for the first, 9.5 for the second.

Compared with B7, B8 is lower in “Proxy for plastic degradation” value: 0.11 for the first, 0.1 for the second.

First: B9
Second: B10
The “Proxy for plastic degradation” value of the first is lower: 0.05 for the first, 0.06 for the second.
